For test [1], the target named is Cyno LAG-3-His (cynomolgus). The test can be described thus: BLI Octet, FIT-Ig captured, antigen analyte.
The target in test [2] is Cyno PD-1-His (cynomolgus, UniProt B0LAJ3 25-170). The test can be described thus: BLI Octet, FIT-Ig captured, antigen analyte. (In general: BLI is a label-free optical method that tracks binding on a fibre tip over time.)
Test [3] deals with T1, human PD-1-His protein (human, UniProt Q15116 25-167, limits assumed).
T1 construct: also called huPD-1; not shown: His tag
T1 sequence (Q15116 25-167 limits assumed): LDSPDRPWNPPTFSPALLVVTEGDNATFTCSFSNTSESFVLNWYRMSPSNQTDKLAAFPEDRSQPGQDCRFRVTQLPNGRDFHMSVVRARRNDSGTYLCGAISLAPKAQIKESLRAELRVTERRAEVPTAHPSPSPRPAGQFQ
The test can be described thus: BLI Octet, FIT-Ig captured, antigen analyte.

Test [4] addresses T2, recombinant human LAG-3-his protein (Novoprotein) (human, UniProt P18627 23-450).
T2 construct: Bought; also called huLAG-3; not shown: His tag
T2 sequence (looked up): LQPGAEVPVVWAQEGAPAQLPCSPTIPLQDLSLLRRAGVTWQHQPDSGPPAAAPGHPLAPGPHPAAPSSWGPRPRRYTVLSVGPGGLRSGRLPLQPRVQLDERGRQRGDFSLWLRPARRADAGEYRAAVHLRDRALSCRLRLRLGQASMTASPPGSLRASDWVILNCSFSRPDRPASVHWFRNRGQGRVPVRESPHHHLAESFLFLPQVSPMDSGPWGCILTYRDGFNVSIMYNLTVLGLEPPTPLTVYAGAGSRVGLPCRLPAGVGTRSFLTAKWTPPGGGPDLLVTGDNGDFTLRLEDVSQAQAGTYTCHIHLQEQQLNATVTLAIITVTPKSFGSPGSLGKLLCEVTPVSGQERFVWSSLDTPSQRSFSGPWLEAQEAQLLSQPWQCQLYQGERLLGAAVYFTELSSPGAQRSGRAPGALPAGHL
The test can be described thus: BLI Octet, FIT-Ig captured, antigen analyte.

The target of test [5] is T2, recombinant human LAG-3-his protein …. The test can be described thus: BLI Octet, Ab on AHC sensor, huLAG-3-his; test group 3. On the procedure:
(§1) All 18 humanized antibodies (Table 34) and a chimeric antibody having the parental murine VH and VL domains (mAb747c) were ranked by dissociation rate constant (koff). Briefly, antibodies were characterized for affinities and binding kinetics by Octet®RED96 biolayer interferometry (Pall ForteBio LLC). Antibodies were captured by Anti-hIgG Fc Capture (AHC) Biosensors (Pall) at a concentration of 100 nM for 30 seconds. Sensors were then dipped into running buffer (1× pH7.2 PBS, 0.05% Tween 20, 0.1% BSA) for 60 seconds to check baseline. Binding was measured by dipping sensors into a single concentration of recombinant human LAG-3-his protein (Novoprotein). Dissociation was followed by dipping sensors into running buffer for 1200 seconds. The association and dissociation curves were fitted to a 1:1 Langmuir binding model using FortéBio Data Analysis software (Pall). In each test group, the off-rates of antibodies were able to be compared with that of mAb747c. The off-rate ratios were calculated by the off-rate of antibody to that of mAb747c of its group and were compared all together. The lower the ratio was, the higher was the affinity of the antibody.

Test [6] shares this target. The test can be described thus: BLI Octet, Ab on AHC sensor, huLAG-3-his; test group 2. On the procedure:
as §1, with “9” for “18”, “25)” for “34)”, “Octet RED96” for “Octet®RED96”, “FortéBio” for “ForteBio”, “Anti-HIgG” for “Anti-hIgG”, “(Pall).” for “(Pall). In each test group, the off-rates of antibodies were able to be compared with that of mAb747c. The off-rate ratios were calculated by the off-rate of antibody to that of mAb747c of its group and were compared all together. The lower the ratio was, the higher was the affinity of the antibody.”
All 13 humanized antibodies (Table 39) and chimeric anti-LAG-3 antibody mAb747c having the parental murine VH and VL domains were ranked by dissociation rate constant (koff) in the same manner described in Example 9.1 supra. In each test group, the off-rates of antibodies were able to be compared with that of mAb747c. The off-rate ratios were calculated by the off-rate of antibody to that of mAb747c of its group and were compared all together. The lower the ratio was, the higher was the affinity of the antibody.

Where a chain is given by its changes, count along the chain named. Numbers in names are those of the source.

This is an account of results in patent publication US20210188980A1 (SHANGHAI EPIMAB BIOTHERAPEUTICS, published 2021).

A word on the Kd: it is the concentration at which binding is half-saturated. A word on the koff: it is a measure of how fast the partners let go of each other. A word on the kon: it is a measure of how fast the partners come together.

Cyno PD-1-His, sequence (B0LAJ3 entry or part of it limits assumed): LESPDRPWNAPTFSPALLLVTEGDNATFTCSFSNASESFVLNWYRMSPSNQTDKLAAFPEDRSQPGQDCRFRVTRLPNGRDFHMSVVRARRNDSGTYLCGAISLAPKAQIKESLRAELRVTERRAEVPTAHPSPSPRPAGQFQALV

B1: FIT107-1-7b-3 (bispecific antibody, human IgG1, kappa, L234A L235A)
chain 1: not shown
chain 2: EVQLVQSGAEVKKPGATVKLSCTASGFNIKDDYMHWVKQRPEQGLDWIGWIVPRNANTVYASKFQGKATITADTSTNTAYLELSSLRSEDTAVYYCTVYGDYWGQGTTVTVSSASTKGPSVFPLAPSSKSTSGGTAALGCLVKDYFPEPVTVSWNSGALTSGVHTFPAVLQSSGLYSLSSVVTVPSSSLGTQTYICNVNHKPSNTKVDKKVEPKSC
chain 3: not shown
notes: FIT-Ig hexamer; outer anti-LAG-3 (HumAb747V-73 with G55A), inner anti-PD-1 (HumAb713-7)
With B1, the Kd was 0.167 nM in test [1], 3.71 nM in test [2], 8.86 nM in test [3] and 2.28 nM in test [4]. The koff stood at 4.7e-05 s⁻¹ in test [1], 0.000919 s⁻¹ in test [2], 0.00103 s⁻¹ in test [3] and 0.000328 s⁻¹ in test [4]. Also, the kon turned out to be 281000 M⁻¹ s⁻¹ in test [1], 248000 M⁻¹ s⁻¹ in test [2], 116000 M⁻¹ s⁻¹ in test [3] and 144000 M⁻¹ s⁻¹ in test [4].

B2: HumAb747-55 (antibody, human IgG1, V domains shown)
VH: EVQLVQSGAEVKKPGATVKISCKVSDFNIKDDYMHWVQQAPGKGLEWIGWIVPENGNTEYASKFQGRVTITADTSTDTAYLELSSLRSEDTAVYYCTVYGDYWGQGTTVTVSS
VL: DIQMTQSPSSLSASVGDRVTITCRASQEISGYLSWLQQKPGGAIKRLIYAASTLDSGVPSRFSGSRSGSDYTLTISSLEPEDFADYYCLQYASYPLTFGQGTKLELK
notes: humanized mAb747; human IgG1/kappa constant domains
Regarding B2, in test [5], the koff came to 0.0119 s⁻¹ and the “off-rate ratio to that of mAb747c” value was found to be 972%.

B3: HumAb747V-69 (antibody, human IgG1, V domains shown)
VH: EVQLVQSGAEVKKPGATVKLSCTASGFNIKDDYMHWVKQRPEQGLDWIGWIVPENGNTVYASKFQGKATITADTSTNTAYLELSSLRSEDTAVYYCTVYGDYWGQGTTVTVSS
VL: B2 VL with E79Q
notes: engineered HumAb747-60 variant; human IgG1/kappa constant domains
For the molecule B3, in test [6], the koff worked out at 0.000357 s⁻¹ and the “off-rate ratio to that of mAb747c” value amounted to 53%.

B4: HumAb747V-71 (antibody, human IgG1, V domains shown)
VH: B3 VH with E54R
VL: B2 VL with T53A, E79Q
notes: as for B3
B4: in test [6], the koff was determined as 0.000292 s⁻¹ and the “off-rate ratio to that of mAb747c” value came out at 43%.

B5: HumAb747-56 (antibody, human IgG1, V domains shown)
VH: B2 VH with I20L, V24A
VL: B2 VL
notes: as for B2
For B5, in test [5], the koff came out at 0.00431 s⁻¹ and the “off-rate ratio to that of mAb747c” value came to 352%.

B6: HumAb747V-70 (antibody, human IgG1, V domains shown)
VH: B3 VH with E54R
VL: B2 VL with S56L, E79Q
notes: as for B3
As to B6, in test [6], the koff turned out to be 0.000273 s⁻¹ and the “off-rate ratio to that of mAb747c” value was 40%.

B7: HumAb747-58 (antibody, human IgG1, V domains shown)
VH: B2 VH with I20L, K23T, V24A, Q38K, V68A, D77N
VL: B2 VL
notes: as for B2
B7: in test [5], the koff stood at 0.00405 s⁻¹ and the “off-rate ratio to that of mAb747c” value was 331%.

B8: HumAb747V-68 (antibody, human IgG1, V domains shown)
VH: B3 VH
VL: B2 VL with T53A, S56L, E79Q
notes: as for B3
Turning to B8, in test [6], the koff was 0.000295 s⁻¹ and the “off-rate ratio to that of mAb747c” value was found to be 41%.

B9: HumAb747-57 (antibody, human IgG1, V domains shown)
VH: B2 VH with I20L, K23T, V24A
VL: B2 VL
notes: as for B2
With B9, in test [5], the koff is 0.00411 s⁻¹ and the “off-rate ratio to that of mAb747c” value was found to be 335%.

B10: HumAb747V-72 (antibody, human IgG1, V domains shown)
VH: B3 VH with E54R
VL: B2 VL with T53A, S56L, E79Q
notes: as for B3
As to B10, in test [6], the koff came to 0.000247 s⁻¹ and the “off-rate ratio to that of mAb747c” value worked out at 37%.

B11: FIT107-1-6a-2 (bispecific antibody, human IgG1, kappa, L234A L235A)
chain 1: not shown
chain 2: EVQLVESGGGLVQPGGSLRLSCAASGFTFSFYTMSWVRQAPGKGLEWVATISGGGRDTYYPDSVKGRFTISRDNAKNSLYLQMNSLRAEDTAVYYCAGQGGNYLFAYWGQGTLVTVSSASTKGPSVFPLAPSSKSTSGGTAALGCLVKDYFPEPVTVSWNSGALTSGVHTFPAVLQSSGLYSLSSVVTVPSSSLGTQTYICNVNHKPSNTKVDKKVEPKSC
chain 3: DIQMTQSPSSLSASVGDRVTITCRASQEISGYLSWLQQKPGGAIKRLIYAASALDLGVPSRFSGSRSGSDYTLTISSLQPEDFADYYCLQYASYPLTFGQGTKLELKRTVAAPSVFIFPPSDEQLKSGTASVVCLLNNFYPREAKVQWKVDNALQSGNSQESVTEQDSKDSTYSLSSTLTLSKADYEKHKVYACEVTHQGLSSPVTKSFNRGEC
notes: FIT-Ig hexamer; outer anti-PD-1 (HumAb709-8), inner anti-LAG-3 (HumAb747V-72 with G55A)
Take B11: the Kd amounted to 0.428 nM in test [1], 3.49 nM in test [2], 1.28 nM in test [3] and 1.02 nM in test [4]. Also, the koff in test [1] is 8.17e-05 s⁻¹; in test [2] it was 0.00107 s⁻¹; in test [3] it was 0.000239 s⁻¹; in test [4], 0.000117 s⁻¹. Also, the kon stood at 191000 M⁻¹ s⁻¹ in test [1], 306000 M⁻¹ s⁻¹ in test [2], 187000 M⁻¹ s⁻¹ in test [3] and 115000 M⁻¹ s⁻¹ in test [4].
